# Laboratory results reported in a protein production outcome set (Wang et al. 2014).
# Assay: label from the status in PepcDB records
# 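Also: failed if final PepcDB status was selected cloned or expressed and not failed if soluble or beyond.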
row,Sequence,protein production
1,MEFSGRKWRKLRLAGDQRNASYPHCLQFYLQPPSENISLIEFENLAIDRVKLLKSVENLGVSYVKGTEQYQSKLESELRKLKFSYRENLEDEYEPRRRDHISHFILRLAYCQSEELRRWFIQQEMDLLRFRFSILPKDKIQDFLKDSQLQFEAISDEEKTLREQEIVASSPSLSGLKLGFESIYKIPFADALDLFRGRKVYLEDGFAYVPLKDIVAIILNEFRAKLSKALALTARSLPAVQSDERLQPLLNHLSHSYTGQDYSTQGNVGKISLDQIDLLSTKSFPPCMRQLHKALRENHHLRHGGRMQYGLFLKGIGLTLEQALQFWKQEFIKGKMDPDKFDKGYSYNIRHSFGKEGKRTDYTPFSCLKIILSNPPSQGDYHGCPFRHSDPELLKQKLQSYKISPGGISQILDLVKGTHYQVACQKYFEMIHNVDDCGFSLNHPNQFFCESQRILNGGKDIKKEPIQPETPQPKPSVQKTKDASSALASLNSSLEMDMEGLEDYFSEDS,failed
2,MEFTTGLMSLDTALNEMLSRVTPLTAQETLPLVQCFGRILASDVVSPLDVPGFDNSAMDGYAVRLADIASGQPLPVAGKSFAGQPYHGEWPAGTCIRIMTGAPVPEGCEAVVMQEQTEQMDNGVRFTAEVRSGQNIRRRGEDISAGAVVFPAGTRLTTAELPVIASLGIAEVPVIRKVRVALFSTGDELQLPGQPLGDGQIYDTNRLAVHLMLEQLGCEVINLGIIRDDPHALRAAFIEADSQADVVISSGGVSVGEADYTKTILEELGEIAFWKLAIKPGKPFAFGKLSNSWFCGLPGNPVSATLTFYQLVQPLLAKLSGNTASGLPARQRVRTASRLKKTPGRLDFQRGVLQRNADGELEVTTTGHQGSHIFSSFSLGNCFIVLERDRGNVEVGEWVEVEPFNALFGGL,not failed
3,MEFYEVIKKRKSIKKFEQTAIDRDKLLKIIDMAMRAPSWKNKTPYKFIVVESDKLKLDIANAIENKTSAASEAVLNSPMTIVAVANPEESGDVSGKEIYLIDTAIAMEHIVLGATDEGYGTCWIAAFNENKIKEALKIPDNLRVVALTPLGVPKDSAEDEPHHPKKDMDEYLYIDKWGTSFMESNVKILEKN,not failed
4,MEGFGMPKLIISGRGGSGKSTLVTLIAHTLKEQKKRVLVVDSDESNIGLSGILGIEPAEKTLMDYLGGKPRVMKKLRSMIRDGETEPELFREKFDLESLSQEFVCWVGSLGLMQIGKIDHAMEGCACPMGAVTRDFLNHVRLEEDQWVLVDTEAGVEHFGRGIVEGADAVVMVVDPSSDAVLLAEKAAKLTHEADKRFGVILNKIDEETEPILTELLTSEGNEIKGVLPYSPAITKMNLKGESLGAYAVKNEVDEIIRELMKCLEHHHHHH,failed
5,MEGIDMLDIKLIRENPELVKNDLIKRGELEKVKWVDEILKLDTEWRTKLKEINRLRHERNKIAVEIGKRRKKGEPVDELLAKSREIVKRIGELENEVEELKKKIDYYLWRLPNITHPSVPVGKDENDNVPIRFWGKARVWKGHLERFLEQSQGKMEYEILEWKPKLHVDLLEILGGADFARAAKVSGSRFYYLLNEIVILDLALIRFALDRLIEKGFTPVIPPYMVRRFVEEGSTSFEDFEDVIYKVEDEDLYLIPTAEHPLAGMHANEILDGKDLPLLYVGVSPCFRKEAGTAGKDTKGIFRVHQFHKVEQFVYSRPEESWEWHEKIIRNAEELFQELEIPYRVVNICTGDLGYVAAKKYDIEAWMPGQGKFREVVSASNCTDWQARRLNIRFRDRTDEKPRYVHTLNSTAIATSRAIVAILENHQEEDGTVRIPKVLWKYTGFKEIVPVEKKERCCAT,not failed
6,MEGLLIDYVQPGSIAEELEIEAGDRLVAINGQDLRDIIDFSFYAHDEELALEIVKPSGDHWEAEIERDGDEPLGLVFAPPVPAQCGNKCVFCFVHQLPKGLRRPLYVKDEDYRLSFLYGNYVTLSNIRRGDLDRIVAQRLSPLYISVHATNPALRERLLGRSEILPILDLMRELAAARIVMHSQIVLCPGLNDGVELEKTVRDLAGLHPWVESLAIVPIGLTKHRRGLPALEPVTASYAETFVQNWQPAAERLERELGAPFLFIADEFYIKAGLPFPPLETYGDLPQIENGVGMIPLFLDESERVLKKARKGKPVTVTVVTGESPYRYLAAFLERLSVRTGATFKPVAVHNRLFGESVTVTGLVAGSDIVEELSGRDLGDAVLVPDVMLKEGEGIFLDDLSVDGLGKSLGTRVLVVEATPQGVVDALRRVRSMLEHHHHHH,failed
7,MEGMKGAVLITGASRGIGEATARLLHAKGYRVGLMARDEKRLQALAAELEGALPLPGDVREEGDWARAVAAMEEAFGELSALVNNAGVGVMKPVHELTLEEWRLVLDTNLTGAFLGIRHAVPALLRRGGGTIVNVGSLAGKNPFKGGAAYNASKFGLLGLAGAAMLDLREANVRVVNVLPGSVDTGFAGNTPGQAWKLKPEDVAQAVLFALEMPGHAMVSEIELRPTRPTSGPR,not failed
8,MEGPLNLAHQQSRRADRLLAAGKYEEAISCHRKATTYLSEAMKLTESEQAHLSLELQRDSHMKQLLLIQERWKRAKREERLKAH,not failed
9,MEGQTHDAQNNVPEHDNPLMNVKNPSSNLFSKKDAQCLSVLCNGKWLQIVRSSPKVSCEASTCPSHILTKVGENYVAESEKMHKKVISFSSKTFSQGTLQFTMRANGTPHFVFKLENQKDVYVASLSSNVQDQNSYMIHLQRGESSASSSHLVGRINVSTLFSEKVLEREFVLFSSNGENLKIPRTRKNRGLSKKVVHAVKNERRTARLSRTSFIPDLGSWDEQFQAQNYDCLLKNKLPTNLETLAVVVKQETIEDEIGGWGLKFLKRSPMFQRSNDASETETSTSSISMNVVIPSGIHGGPEDGPSSLIERWKSQGNCDCGGWDLCCSLTLLKGQPRKDQYFELFIEVKLSFISSNTSIL,failed
10,MEGVELELERRSKFLNSLIQKKKAKEQQDQKDEFNVRVRASDMPLPQQNRAFSLSREILNATPGKADNKRLAHALKKDFDSAYGPAWHCIVGTSFGSYVTHSTGGFLYFQIDKVYVLLFKTAVEPLDQK,failed
11,MEHDLNDMMVFLAVVETGSFTLAADRLGMPKANVSRKVSRLEKNLAVTLLERSTRSQHLTEAGRRYLAHCKRIHEELDLATASVCELFHSYTGELKIGASVASGQQVLRPALGKFMRQYPDLKVQLNLVNRRVDFIEEGFDVVIRIGQLNDSMLIAKKLGAINRKIFASPSYLAKQGNPDKVEQLTEHQLLIMNPLNISGNKDLKLPLTSTDHETFTLDCQPRLLVDDFSMLKQAIVDGLGIGVLPDYMCRQEVASGQLVNILPDWGMAKVDIYALYPKHRAKIPKVKAFIDFVSELYGEVL,not failed
12,MEHKIVHVGDIPVANDKPFTLFAGMNVLESRDLAMQICEHYVKVTDKLGIPYVFKASFDKANRSSVHSYRGPGLEEGMKIFQELKETFGVKIITDVHTEAQAQPVADVVDVIQLPAFLARQTDLVEAMAKTGAVINVKKPQFMSPGQVGNIVEKFAECGNDKVILCERGSCHGYDNLVVDMLGFGVMKQASNGSPIIFDVTHSLQMRDPSGAASGGRREQTVELAKAGLATGIAGLFIEAHPNPDKARCDGPSALPLDKLEPFLAQMKALDDLIKSFAHIDIR,not failed
13,MEHKKALFCIFAIIHLFFWIIFSSLNHFKLDTFLSYEIAFFSVLLIIFASYLNYKKVIIKKSKNYEKDFNFISSLFIKKKQNLSKIIHFKVLKDDLKPNVKEKIHFFAMFFTLFKLMAYVVLVAGFLFLHRQDKLDIFAYICGISSLLVCVFIFILYIKKYESKKNY,failed
14,MEIAKGVEMLQLEFQEFIIHPILLWNDEMAVLIDTGFPGQFEDIQVEMKRVGVSVDKLKVVILTHQDIDHIGSLPDLLENGVSDIKVYAHELDKRYIEGDLPLLKDVHVENPPKGKVSDTVIDGQELPYCGGILILHTPGHTPGHISLYLKQSKTLIAGDSMYSVNGKLGGIHAPTTLNIMEAQQSLKKYLNLDIESVVCYHGGLSKGNIKIQLQNL,failed
15,MEIAVERVFTKEILKRAVNLFHVTVEEKPLGDFENYIFKAKGDNDEDYVLRLTHSSHRSKQEVEAELDFLRYVAENGAKVAGPLYSTSRNLVEEIVAEDGTFFFASLFIYAKGEQVKGAESPYWGDAYFEAWGKAIGQLHRLTMDYPKTDYRDTWEEDESGIVNELEDGQVKEIAAVLMDEIKALPVERETFGLMHGDIHQGNFHYDGKELTIFDFDDAAYNYFIHDLAMVLYYSVLFTPWTAEEKTDFARKQLQVLRKGYEYEHRLADSWYESLPLFLRLRDIGLYGTLQKKFKGKDMPDNFLKLSEELYERIIKREAIVNI,failed
16,MEIEYIKDYRDINQEDDTVLILGYFDGLHRGHKALFDKAREVANKEGLKVVVFTFTESPKLAFSRFSPELLLHITYPKKRYEKFADYGVNKLYLVDFTSKFSKVSSDHFITHYIKNLKAKHIVVGFDYKFGHNRTDSDYLTRNFEGQVYTIEEIKEDHRKISATWIRKLIQEGNVVKANHLLGYDLSTRGRVVHGDARGRTIGFPTANLAPIDNTYLPADGVYVTNVIVANKIYRSMTSLGKNVTFGGKELRLEVNIFDFDEEIYGEIIEIVWLDKIRDMEKFEGIEDLTDRLEYDKRTALNWKKDSKLS,failed
17,MEIIIYIFVSIAIISLQAITPFVIRKSECFGVNVGERANRNAELTQLKKQYVGQVILWTVLVAIIGIALIQGFHWSENIQAGIFIISMFGQLIVSFIIYYRFHHTTLQWKREKIESGEISTNSIIMVDTSFHRRKMVISYTWFVVPLLIFIITLAITAVFYPFAPEEFPVHFDMNGVVTDTVQKSVRAALLLPMLQLGMIALFIFINFVIARSKQTVENENPADSLKRNMLFRQISSKAMLIMCVILVIDFLVMQAVILLSLSPEIMMITMSISIILILLGTVLLAVKVGQGGSRLKFANEPDNVNKPIRDDDAFWKAGVIYFNRNDPALFVEKRFGIGWTINTARPVAWLTFVFIIAAIVFISILF,failed
18,MEIKAMFRDVSLSSRNFSEMLSRESKVVAALAAKSPLMAHANWRLKGNSLEEATLYPAFDADGSPSTPALAVLNEEQRGKKHSASHAAIWNGNTRPNEGASMSCHVSDEKVLPDRFSTRLGVPDCYAKSQDLADVVTTIVAAFNPLVVEASPEGYFDKQVFDDKPGVGWMLYLPKVITQQQVPEARALIPVSAKGKQTGTIIVSVTDAPFSVDNPEHVAIANRIEIRLVDQDLLPAYVDI,not failed
19,MEIKAYKKKNGTTAYKFKAYIGKKNGKSQYAEKSGFKTKADARAALHNIQEEIDNPTPKSSMTFKELYDEWLLVYEKEVQNSTYYKTTRAFEKHVLPVIGSTKLSDFTPMELQNFRNDLSEKLKFARKLFGMVRKVFNHAALLSYIQANPALPVTSQGIKKKVEEKKDFYDTDELRDFMALVEKTNDIKKIALFRILAFTGIRKGELLALEWKDYRKSTLDINKAISHSPVGYEILPPKANSNRLLSLDEKTCKILDELHQTYPESTRIFESENGGMLSPSKPRKWLLEITKEKEIEPIRIHAFRHTHASLLFESGMSLKQVQYRLGHADLKTTMNIYTHITKFAKDKIGQQFSDYIDF,failed
20,MEIKGESMQKSKFRRICVFCGSSQGKKSSYQDAAVDLGNELVSRNIDLVYGGGSIGLMGLVSQAVHDGGRHLTGETVGEVRAVADMHQRKAEMAKHSDAFIALPGGYGTLEELLEVITWAQLGIHDKPVGLLNVDGYYNSLLSFIDKAVEEGFISPTAREIIVSAPTAKELVKKLEVN,not failed
21,MEIKLFCVFIVFIILFSPFVIALSYPDVNYTAENGIIFVQNVTTGEKKPLYLHGVSWFGFELKDHVVYGLDKRNWKDILKDVKRLGFNAIRLPFCSESIRPDTRPSPERINYELNPDLKNLTSLEIMEKIIEYANSIGLYILLDYHRIGCEEIEPLWYTENYSEEQYIKDWIFLAKRFGKYPNVIGADIKNEPHGEAGWGTGDERDFRLFAEKVGREILKVAPHWLIFVEGTQYTHVPNIDEIIEKKGWWTFWGENLMGVKDYPVRLPRGKVVYSPHVYGPSVYMMDYFKSPDFPNNMPIIWETHFGYLTDLNYTLVIGEWGGNYEGLDKVWQDAFVKWLIKKKIYNFFYWCLNPESGDTGGIFLDDWKTVNWEKMRVIYRLIKAANPEFEEPLYIILKTNATTSILGVGERIRIYWYTNGKVIDSNFAHSSEGEMNITVTKSMTLYIIVKKGNQTLRKELKLYVIGGNYGSNISTTQLVTPKKGGERISTSLKLAISLLFILLFVWYLLREKH,failed
